Laboratory results reported in paper PMC10843048.

Assays:
[1] = target: His+Ala+TIMP2 (human) (UniProt P16035); test: SPR
[2] = target: His+Ala+TIMP2Q186 (human); test: SPR

UniProt P16035, sequence (P16035 26-220): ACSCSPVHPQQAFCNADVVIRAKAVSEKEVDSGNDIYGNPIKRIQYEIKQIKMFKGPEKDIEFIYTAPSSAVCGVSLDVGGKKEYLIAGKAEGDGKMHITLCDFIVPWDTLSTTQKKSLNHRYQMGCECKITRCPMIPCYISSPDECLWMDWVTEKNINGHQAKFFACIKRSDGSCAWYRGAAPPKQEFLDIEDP

Kd [1]: 0.76 nM
Kd [2]: 1900 nM
Substance: Recombinant C-domain of MMP2 (C-MMP2) (domain or fragment)
